The text below walks through data of patent US20190359687A1 (Bayer, published 2019).

In assay [1] the target is T1, human glycophorin A in the red blood cell membrane (human, UniProt P02724 20-150).
T1 construct: whole, on cells; used for intact RBC, isolated RBC membranes and transfected cells; the assay field tells which; also called GPA; hGPA
T1 sequence (looked up): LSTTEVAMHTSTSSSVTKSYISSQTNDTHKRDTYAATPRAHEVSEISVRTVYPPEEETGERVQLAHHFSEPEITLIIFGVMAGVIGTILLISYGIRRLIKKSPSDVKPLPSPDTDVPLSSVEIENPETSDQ
Description: FACS, Human RBC. A general note: A flow cytometer gives signals particle by particle.

For assay [2], the target named is T2, Cynomolgus monkey glycophorin A on Cynomolgus monkey red blood cells (Cynomolgus monkey).
T2 construct: whole, on cells; also called Cyno RBC; Cyno GPA
The experiment in a line: FACS, Cyno #2 RBC.

Assay [3] deals with T3, Rhesus monkey glycophorin A on Rhesus monkey red blood cells (Rhesus monkey, UniProt A0A1D5Q349 20-150).
T3 construct: whole, on cells; also called Rhesus RBC; monkey GPA
T3 sequence: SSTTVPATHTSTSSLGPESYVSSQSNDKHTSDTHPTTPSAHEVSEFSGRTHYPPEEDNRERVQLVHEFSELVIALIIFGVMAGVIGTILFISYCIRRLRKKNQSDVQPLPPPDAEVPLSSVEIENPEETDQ
Description: FACS, Rhesus RBC.

The target of assay [4] is T2, Cynomolgus monkey glycophorin A on …. The experiment in a line: FACS, Cyno #1 RBC.
The target in assay [5] is T4, dog red blood cells (dog).
T4 construct: also called dog RBC
The experiment in a line: FACS, Dog RBC.

In assay [6] the target is T2, Cynomolgus monkey glycophorin A on …. Description: FACS, Cyno #3 RBC.

B1: 6C12 scFv-Fc (Fc fusion)
scFv: RVQLQQSGAELARPGASVKMSCKASGYTFTTYTIHWVKQKTGQGLEWIGYINPSSDYTRYNPKFKDKATLTTDKSSSTAYMKLNSLASDDSAVYYCQTGTRDYWGQGTTLTVSSGGGGSGGGGSGGGGSQIVLTQSPPIMSASPGEKVTMTCSAASSVSYIYWFQQKPGTSPKLWIYSTSTLPSGVPTRFSGSGSGTSYSLTISRMEAEDAATYYCHQRNSFPFTFGSGTKLEIRGGGGAGGGGCKPCICTVPEVSSVFIFPPKPKDVLTITLTPKVTCVVVDISKDDPEVQFSWFVDDVEVHTAQTQPREEQFNSTFRSVSELPIMHQDWLNGKEFKCRVNSAAFPAPIEKTISKTKGRPKAPQVYTIPPPKEQMAKDKVSLTCMITDFFPEDITVEWQWNGQPAENYKNTQPIMDTDGSYFVYSKLNVQKSNWEAGNTFTCSVLHEGLHNHHTEKSLSHSPGK
notes: scFv fused to a mouse Fc fragment; printed order VH-linker-VL-Fc
For B1, the FACS signal in assay [1] was determined as 2040 Flourescent units; in assay [2], 876 Flourescent units; in assay [3], 1450 Flourescent units; in assay [4], 2 Flourescent units; in assay [5] it was 1 Flourescent units; in assay [6], 602 Flourescent units.

B2: 12C6 scFv-Fc (Fc fusion)
scFv: QVQLQQSGAELARPGASVKMSCKASGYTFTRYSMHWVKQRPGQGLEWIGYINPGTYSTNYNQKFKDRATLTADKSSSTAYMQLNSLTSEDSAVYYCQTGTRDYWGQGTTLTVSSGGGGSGGGGSGGGGSQIVLTQSPPIMSASPGEKVTITCSAASSVSYIYWFQQKPGTSPKLWIYSTSSLPSGVPTRFSGSGSGTSYSLTISRMEAEDAATYYCHQRSSYPFTFGSGTKLEIRGGGGAGGGGCKPCICTVPEVSSVFIFPPKPKDVLTITLTPKVTCVVVDISKDDPEVQFSWFVDDVEVHTAQTQPREEQFNSTFRSVSELPIMHQDWLNGKEFKCRVNSAAFPAPIEKTISKTKGRPKAPQVYTIPPPKEQMAKDKVSLTCMITDFFPEDITVEWQWNGQPAENYKNTQPIMDTDGSYFVYSKLNVQKSNWEAGNTFTCSVLHEGLHNHHTEKSLSHSPGK
notes: as m18
As to B2, the FACS signal was found to be 2900 Flourescent units in assay [1]; 956 Flourescent units in assay [2]; 1860 Flourescent units in assay [3]; 2 Flourescent units in assay [4]; 1 Flourescent units in assay [5]; 580 Flourescent units in assay [6].

B3: 10F1 scFv-Fc (Fc fusion)
scFv: QVQLLQSGAELARPGASVRISCKASGYTFTRYAMHWVKQRPGQGLEWIGYINPGTFSTNYNQKFKDRATLTADKSSSTAYMQLNSLTSEDSAVYYCQTGTRDYWGQGTTLTVSSGGGGSGGGGSGGGGSQIVLTQSPPIMSASPGEKVTITCSAASSVSYIYWFQQKPGTSPKLWIYSTSSLPSGVPTRFSGSGSGTSYSLTISRMEAEDAATYYCHQRSSYPFTFGSGTKLEIRGGGGAGGGGCKPCICTVPEVSSVFIFPPKPKDVLTITLTPKVTCVVVDISKDDPEVQFSWFVDDVEVHTAQTQPREEQFNSTFRSVSELPIMHQDWLNGKEFKCRVNSAAFPAPIEKTISKTKGRPKAPQVYTIPPPKEQMAKDKVSLTCMITDFFPEDITVEWQWNGQPAENYKNTQPIMDTDGSYFVYSKLNVQKSNWEAGNTFTCSVLHEGLHNHHTEKSLSHSPGK
notes: as m18
On to B3, for which the FACS signal in assay [1] was 2980 Flourescent units; in assay [2], 842 Flourescent units; in assay [3] it was 2070 Flourescent units; in assay [4] it was 2 Flourescent units; in assay [5], 1 Flourescent units; in assay [6] it was 647 Flourescent units.

B4: 8F9 scFv-Fc (Fc fusion)
scFv: QVQLQQSGAELARPGASVKMSCKASGYTFTSYSIHWIKQRPGQSLEWIGYINPNSDYANYNQKFKDKATLTTDKSSTTAYMQLSSLTTDDSAVYYCQTGTRDYWGQGTTLTVSSGGGGSGGGGSGGGGSHIVLTQSPAIMSASPGEKVTIICSARSSVSYMYWFQQKPGTSPKLWIYATSSLPSGVPARFSGSGSGTSYSLTISRMEAEDAATYYCHQRSSYPYTFGSGTKLEIKGGGGAGGGGCKPCICTVPEVSSVFIFPPKPKDVLTITLTPKVTCVVVDISKDDPEVQFSWFVDDVEVHTAQTQPREEQFNSTFRSVSELPIMHQDWLNGKEFKCRVNSAAFPAPIEKTISKTKGRPKAPQVYTIPPPKEQMAKDKVSLTCMITDFFPEDITVEWQWNGQPAENYKNTQPIMDTDGSYFVYSKLNVQKSNWEAGNTFTCSVLHEGLHNHHTEKSLSHSPGK
notes: as m18
With B4, the FACS signal turned out to be 2340 Flourescent units in assay [1]; 761 Flourescent units in assay [2]; 1770 Flourescent units in assay [3]; 2 Flourescent units in assay [4]; 1 Flourescent units in assay [5]; 582 Flourescent units in assay [6].

B5: 7G4 scFv-Fc (Fc fusion)
scFv: QVQLKESGPGLVAPSQSLSITCTVSGFSLTRFGISWVRQPPGKGLEWMGVIWGDGSTDYHSALISRLSITKDNSKSQVFFRLNSLQSDDSATYYCARSFGMDYWGQGTSVTVSSGGGGSGGGGSGGGGSNIMMTQSPSSLAVSAGEKVTMSCKSSQSILNSSNQKNYLAWYQQKPGQSPKLLIYWASTRESGVPDRFTGSGSGTDFTLTISSVQAEDLAVYYCHQYFSSRTFGGGTKLEIKGGGGAGGGGCKPCICTVPEVSSVFIFPPKPKDVLTITLTPKVTCVVVDISKDDPEVQFSWFVDDVEVHTAQTQPREEQFNSTFRSVSELPIMHQDWLNGKEFKCRVNSAAFPAPIEKTISKTKGRPKAPQVYTIPPPKEQMAKDKVSLTCMITDFFPEDITVEWQWNGQPAENYKNTQPIMDTDGSYFVYSKLNVQKSNWEAGNTFTCSVLHEGLHNHHTEKSLSHSPGK
notes: as m18
With B5, the FACS signal in assay [1] was found to be 1410 Flourescent units; in assay [2], 1 Flourescent units; in assay [3] it was 1 Flourescent units; in assay [4], 1 Flourescent units; in assay [5], 1 Flourescent units; in assay [6], 1 Flourescent units.

B6: 13G7 scFv-Fc (Fc fusion)
scFv: RVQLQQSGAELARPGASVKMSCKASGYTFTNYAMHWVKQRPGQGLEWIGYINPKSDNTNYNQKFKDKATLTTDKSSATAYMQLSSLTSDDSAVYYCQTGTRDYWGQGTTLTVSSGGGGSGGGGSGGGGSHIVLTQSPAIMSASPGEKVTIFCSASSSITYVYWFQQKPGTSPKLWIYSTSSLPSGVPARFSGSGSGTSYSLTISRMEAEDAATYYCHQRNSYPFTFGSGTKLEIKGGGGAGGGGCKPCICTVPEVSSVFIFPPKPKDVLTITLTPKVTCVVVDISKDDPEVQFSWFVDDVEVHTAQTQPREEQFNSTFRSVSELPIMHQDWLNGKEFKCRVNSAAFPAPIEKTISKTKGRPKAPQVYTIPPPKEQMAKDKVSLTCMITDFFPEDITVEWQWNGQPAENYKNTQPIMDTDGSYFVYSKLNVQKSNWEAGNTFTCSVLHEGLHNHHTEKSLSHSPGK
notes: as m18
As to B6, the FACS signal was determined as 2760 Flourescent units in assay [1]; 981 Flourescent units in assay [2]; 1860 Flourescent units in assay [3]; 2 Flourescent units in assay [4]; 1 Flourescent units in assay [5]; 632 Flourescent units in assay [6].
